Reference: the DeepSol protein solubility set

Experiment: soluble on expression in E. coli; label from the status in PepcDB or PDB records

**Q.** For “MTSSFLYVLFTVSCLAALVSISEACFASGICGGGCPPPPPPMCSGGCGGGYSCGSYGCYRARARGSKTLSFKKPSEMNPDERFMKCCEDRNLPDSCLSKCSYRSYTKSALQSMYFKQDSCPMQAAADIQFCAAQGKDHTACCARNAVGTTLAGNKCFTFCDQRPGNVTQLDMSYLACYDRFENMKACFYQKASEASDPIVSFSNDRDNNREFAVDTETAEFRRPSQEHFRAPTSPQLPQNPLFAVQNLLARTFGQ”, which “soluble on expression in E. coli” value is on record?
**A.** not soluble

**Q.** Which “soluble on expression in E. coli” value does the source give for “MTSSIPFRSFNEKYECNDDDNFTYSSTEQKRIETMLFENYNSLVLEPFKTTSDEDLAELTIFRQKHASYLLRYLKNCPSSYATLDASRSWMCYWGVNALKILDAEIPNDVIENIIVFLKSCEHPEGGYGGGPGQLAHLAPTYAAVMCLVSLQKEEALRSINRVTLFNFLKKCKHESGGFYMHEGGEIDMRSAYCALATCEIVGLPMDEISNGVAEWIISCQSFEGGFGGEPYTEAHGGYTFCAVASLVLLNRFRLADMEGLLRWATRRQMRFEGGFQGRTNKLVDGCYSFWQGAIFPLLDGEMEREGRSLEKGLFEARMLEEYILVGCQSVHGGFKDKPDKPVDLYHTCYVLSGLSVAQKYSLARDGKILGGDVNMLAEINPVFNVTIASEQFAKEFFTSH” here?
**A.** not soluble

**Q.** With “MTSVDCTAYGPELRALAARLPRTPRADLYAFLDAAHTAAASLPGALATALDTFNAEGSEDGHLLLRGLPVEADADLPTTPSSTPAPEDRSLLTMEAMLGLVGRRLGLHTGYRELRSGTVYHDVYPSPGAHHLSSETSETLLEFHTEMAYHRLQPNYVMLACSRADHERTAATLVASVRKALPLLDERTRARLLDRRMPCCVDVAFRGGVDDPGAIAQVKPLYGDADDPFLGYDRELLAPEDPADKEAVAALSKALDEVTEAVYLEPGDLLIVDNFRTTHARTPFSPRWDGKDRWLHRVYIRTDRNGQLSGGERAGDVVAFTPRG” as the sequence, how does the “soluble on expression in E. coli” value read?
**A.** soluble

**Q.** For “MTSYEEETDYRNVPRELLDNNIPMGRGMIKWAPFATLPEQFETIQQYIIDQNKITRPVLSDDQLAELNIRLHEALQYAQPVEVKFYNNGFVDSVRLTIYRIDAINYEIDGYVYNQQQRQKISIFDILDIVLLP”, which “soluble on expression in E. coli” value is on record?
**A.** not soluble

**Q.** With “MTTFTHINSQGEANMVDVSAKAETVREARAEAIVTMSKETLSMIVEGKHHKGDVFATARIAGIQAAKRTWELIPLCHPLLLSKVEVNLEPLLETNQVRIQSLCKLTGKTGVEMEALTAASVAALTIYDMCKAVQKDIVIEHVRLLEKSGGKSGHFIAEEK” as the sequence, how does the “soluble on expression in E. coli” value read?
**A.** soluble

**Q.** Which “soluble on expression in E. coli” value does the source give for “MTTLEILRSGPLALVEDLGRAGLAHLGVGRSGAADRRSHTLANRLVANPDDWATVEVTFGGFSARVRGGDVDIAVTGADTDPTVNGIMVGTNSIHHVRDGQVISLGTPRAGLRTYLAVRGGVCVEPVLGSRSYDVMSAIGPSPLRAGDVLPVGEHTDDYPELDQAPVAAIEEHLVELRVVPGPRDDWLVDPDALVHTIWMASNRSDRVGMRLQGRPLQHRWPDRQLPGEGVTRGAIQVPPNGLPVILGPDHPITGSYPVVGVITDEDIDKVAQIRPGQYVRLHWARPRSRLPGQGVTQAW” here?
**A.** soluble

**Q.** For “MTTLTAQQIACVYAWLAQLFSRELDDEQLTQIASAQMAEWFSLLKSEPPLTAAVNELENRIATLTVRDDARLELAADFCGLFLMTDKQAALPYASAYKQDEQEIKRLLVEAGMETSGNFNEPADHLAIYLELLSHLHFSLGEGTVPARRIDSLRQKTLTALWQWLPEFVARCRQYDSFGFYAALSQLLLVLVECDHQNR”, which “soluble on expression in E. coli” value is on record?
**A.** soluble

**Q.** With “MTTPRWLTQDEQSLWRLFLAMERKVTRGIDEELQSSQGLTTPEFSVLVSLSERPGHEIRLRDLCESLQWDRSRTSHQITRMQRRGLVTKTKCSDDARGVFVELTPEGEKRLREAAPGHVDVVRKLIFDVMTEEEAAVLRGYFQKVIDVQCGASTGNPLDD” as the sequence, how does the “soluble on expression in E. coli” value read?
**A.** not soluble

**Q.** Which “soluble on expression in E. coli” value does the source give for “MTTRILTGITPTGTPHLGNYAGAIRPAILASRRSDVDSFYFLADYHALIKCDDPARIQRSRLEIAATWLAGGLDVERATFYRQSDIPEIPELTWLLTCVSAKGLLNRAHAYKAAVDRNVEAGEDPDAGVTMGLYSYPVLMAADILMFNAHKIPVGRDQVQHVEMARDIGQRFNHLFGNGREFFVLPEAVIEENVATLPGLDGRKMSKSYDNTIPLFSPSRQLKDAIARIVTDSRAPGEPKDPDSSHLFLLYSAFASAEQVAAFRQELLEGLAWGEAKQRLFQLLDNELGEARERYQALIAKPDDIEDILLAGAAKARRIATPFIAELREAVGLRSLREPLKSAESGKKKAAKAARLVSFRDDDGSFRFRLLDAAGEQLLLSRAFADGKAAGAVSKRLLAGETADLRAEGNAFGLWLDGEAVAQSPAFADAAARDAAIERTREALAPQ” here?
**A.** not soluble

**Q.** Which “soluble on expression in E. coli” value does the source give for “MTTRLIVKNLPSTCTEQQLRKFFEKYGQISDASLKYTKEGKFRGFAFVGFLDEGSASNALAKSNQTFFNSKKLTVEECRPFGDANKPRAWSKYAKDSSAYKRTHGEKEEANPGKSDETEEPAPKKQKDDAKFDQFLEAKGVVVEKEVKLSKDKSAEAKKLMAELMDGIGGDTSLSLIFSGLPSSAKGKNIKEWLNPIRVKAMKIARNEDVAAAFVTFNRPPDVRRALQKDGQFLGGFKIGIEKIETPEPEHEVIEEHGASLESRDKEEETVREKILETGRLFLRNLPYATKEDDLQFLFKKYGEVSEVQVVIDKKTGACKGFAIVEFVFPEAAVAAYSALDGYVFKGRMMHILPGDEKRTKEGEEESEVVPDDPDNPLKAEAKKEKKKKSFKEEKDEQKKASAGKTAHSWNALFLGANAIADTLAQRLNVKKSDLLTSDQGESAGVRLALAETRLVRETRDFFLENGVKLDAFSKPAEKRSDTVMLAKNLPAGVESEELQRMFEKFGDCTKVLMPTEGGVSALVIMGNPVDAKKAFRALAYSRFRSQPLYLEWAPYDVMGATAPPAEDKTAEVADKPKLSKREMTYEEKRKERKNRQQGITEEEKDDGEVIEEEEKPKEVEAEDKKKSSKKQSEKEIESGSTLFVKNLAFDTTDGSLEFLFRKRYGDLVKSAQISKKLNPAEPTKPLSMGFGFVQFYTAFDAKTALKDMQGELLDGHSLELKISHRENADKGALKRKEVKQKEQGECTKLLVRNLPFEASVKEVETLFETFGAVKTIRIPKKPGQKQQHRGFGFVDFISADEAHRAFDSLVHSTHLYGRRLVLEWAKDDETVEELREKTAEKFAGNKKGVKKSKAQTEEFQQQLQIADDEKD” here?
**A.** not soluble

**Q.** Which “soluble on expression in E. coli” value does the source give for “MTTSCLQEKIDKLQNTVHALLHKSNYMAGVYVDDLARLNNEIHEQINDLYPCHGKTAEQEAALCLSLLMGYSVSMYANSEDEAKKKTVLRRSQMILKNQLPSPLKIQLHTIYDKLLS” here?
**A.** not soluble

**Q.** With “MTTSSHGLEKAMELAKFSKSQKERAREILEAGLLEATYGHLAPSSNFVGGMCVGNVSPGGEPVNLNAKVTGYLPKIKEMAEKHGVAQYVGILAAQMMQESQGEGNDPMQAAEGHYGDLSSSCIGLKGSARIGCIKDPNISIEAGVQEFKDVLAKANGDIALALQSYNYGPGFISYALAKGGYSEETAIAFSREHAGENPAGCSDPNNFRTKVGACYGDFTYVSKILKYYKDLGCVTAGDGEWISDKGWKWPTKSGRITDTFDAVRNGKQHNAVDIGAMTAGKPGDPVWSMEAGVVTAQTGYVNYGGLGVYIDHGNGIVSRYLHLSKISVTPGTMVTKGQIIGEMGGSNYVGGVLNMLGYAVHLDFQIRINDQPTDPMKFFKKNDDPGLSSGGSPTMTNAKRQKVLEEAKKWLGQGKVRYVLGDRNPPGGTSDCSGFTQYVFRTSIGVQLGDWTGAQVGQGKQVPDINHAQPGDLIFYENPGHVAIYMGNQKMIHIGDNKGVQITGLNYTARGQHMTQIRNVID” as the sequence, how does the “soluble on expression in E. coli” value read?
**A.** not soluble

**Q.** For “MTTTPYDIIGKEALYDMIDYFYTLVEKDERLNHLFPGDFAETSRKQKQFLTQFLGGPNIYTEEHGHPMLRKRHMDFTITEFERDAWLENMQTAINRAAFPQGVGDYLFERLRLTANHMVNS”, which “soluble on expression in E. coli” value is on record?
**A.** not soluble

**Q.** With “MTTVLYYLPASPPCRSVLLLAKMIGVELDLKVLNIMEGEQLKPDFVELNPQHCIPTMDDHGLVLWESRVILSYLVSAYGKDENLYPKDFRSRAIVDQRLHFDLGTLYQRVVDYYFPTIHLGAHLDQTKKAKLAEALGWFEAMLKQYQWSAANHFTIADIALCVTVSQIEAFQFDLHPYPRVRAWLLKCKDELEGHGYKEINETGAETLAGLFRSKLKQ” as the sequence, how does the “soluble on expression in E. coli” value read?
**A.** soluble

**Q.** Which “soluble on expression in E. coli” value does the source give for “MTVEHSEAPMTETDVVIIGAGHNGLTCAAYLAMAGLRVRVVERRKVVGGAAVTEEFHPGFRNSVAAYTVSLLNPQVIRDLGLAEQGLRIVERRAQNFLPAPDGSYLLTGEGRTKASVARLSAHDADALDGFSRELEDIADVLRQFVLRAPPNLLDGFGTNAIREAVNALQSANILRGLTLEQSRSLLDLFTRSAGEMLDERFEHDLVKALFGFDAIVGNYASPYAAGSAYVMLHHAFGEVNGKKGVWGHAIGGMGAITQAMARAAQGRGVAIDTDAGVREVIVERDRAVGVVLENGATIRAKYVAANVNPKLLYTRLIAADALPKDFLARIRHWKNGSGTFRMNVALDRLPSFTALPDDGDHLTSGIILAPSLGYMDRAFLDARAHGWSREPVVEMLIPSTLDDTLAPEGKHVASLFCQHVAPELPDSRSWDDHRDEVADLMIATVDSYAPGFASSVLGRQILSPLDLERQFGLLGGDIFHGALTLNQLFSARPMLGHADYRGPLKGLYHCGSGAHPGGGVTGAPGHNAAQAILRDHRSLFGSRGLEHHHHHH” here?
**A.** not soluble

**Q.** Which “soluble on expression in E. coli” value does the source give for “MTVELCGRWDARDVAGGRYRVINNVWGAETAQCIEVGLETGNFTITRADHDNGNNVAAYPAIYFGCHWGACTSNSGLPRRVQELSDVRTSWTLTPITTGRWNAAYDIWFSPVTNSGNGYSGGAELMIWLNWNGGVMPGGSRVATVELAGATWEVWYADWDWNYIAYRRTTPTTSVSELDLKAFIDDAVARGYIRPEWYLHAVETGFELWEGGAGLRSADFSVTVQKLAAALEIKRASQPELAPEDPEDVEHHHHHH” here?
**A.** soluble

**Q.** Which “soluble on expression in E. coli” value does the source give for “MTVIQKSSPTVKGVKTTTSDCTERRHSSSSPCKMSQNGSSGYYEGDVLLDDDALVSMPEATLIECFGNLAVTKRPAHLRPPAAFCLPFVSMNNDLTSGHALKHITLTSVFDALHPYVAMPYINRMDICSAMNVYWIRNCLEAEQSDLFHRFALEMQVHLSACFGCRVVLDIYGSTRNGFGTRFCDVDMSLSFSPSPPSWATNSDRVMRAVAKALVDFPKAVDERYVNAKVPIVRFRSSDMDMEADISYKNDLALHNTQLLQQYCKWDPERLPTLGVWVKAWAKRSGVGDASKGSLSSYAWIVMLIHYLQQVEPIPVLPCLQEMNHQKSENVYVQGYNTYYWKFVDTARTRRCRASVVDLFVGFLDYYATYFDYSTNVIQMVSKKLEFKPDRWCKYPMCIADPFETDHNLAQGVDMPMFEYIRSCMEHSKKVFTDRRMRSEFLSGYGFDVDEFDARHRGEMNMEMASQFGEFLLHKCIMVKQAPNRQFRDRSMSQSTSISNTSSISSSG” here?
**A.** soluble

**Q.** For “MTVKAMALNTNQLFAYLNRGDIAEFKFSPLFTTLFFPNVATFSTQNIMLDTLDIEEVTMSAFCSPMVGSQVQRDKGYETSTIKPGYMKPKHEIDPTKTIMRMAGEDPAQLNDPTYRRMRLITGNMRRQINAIKARVEWLAVNAVTTGKNIIEGEGIERYEIDWKIPEKNIIEQADGKKWSEQDKETHYPIYDIELYADQAGCPANVMIMGAEVWRTLRSFKKFRELYDLSRGSESAAELACKNLGEVVSFKGYLGDLALIVYSGKYTDSDGTEKYFLEPDLLVLGNTNNKGLVAYGAIMDQEAVRTGATQNMFYPKNWIEDGDPAIEYVQTHSAPQPVPADIRKFVTVKIA”, which “soluble on expression in E. coli” value is on record?
**A.** soluble
